# Assay results as given in patent US20240156915A1.
# Molecular target: exenatide (Gila monster) (UniProt P26349)
# Sequence (P26349 48-86): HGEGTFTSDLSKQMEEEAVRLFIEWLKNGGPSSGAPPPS
substance,measurement,value
pepsin (enzyme),Residual content of exenatide in percent (%),0%
